Assay results as given in publication PMC2819637.
pKd: −log10 of the molar value. Values joined by “and” are separate entries in the source; they are usually repeats but may differ in a detail not shown here. Equal entries are not always repeated. Where two headings read alike, the source gives them in different places.

Tests used:
PKR (Homo sapiens) [1] = target: PKR (Homo sapiens) (UniProt P19525); test: analytical ultracentrifugation; conditions: cited from earlier work
PKR (Homo sapiens) [2] = target: PKR (Homo sapiens) (UniProt P19525); conditions: cited from earlier work
[3] = target: phosphorylated monomeric PKR (pPKRm) (human) (UniProt P19525); test: AUC

| pKd [3] | Substance | pKd (PKR (Homo sapiens) [1]) | pKd (PKR (Homo sapiens) [2]) |
| --- | --- | --- | --- |
|  | PKR (from UniProt P19525) | 6.02 | 3.30 and 3.35 |
| 3.33 | phosphorylated monomeric PKR (pPKRm) (from UniProt P19525 1-551) (enzyme) |  |  |
